Patent US8722052B2, “Vaccinia virus protein A46 peptide and use thereof” (priority 2008, dated 2014)

Legend:
TLR2 = target: T1, TLR2 (Homo sapiens, UniProt O60603); assay: Pam3CysK4-induced TNFα in THP-1 cells, ELISA; type: cell-based; conditions: peptide 1, 5 or 10 μM
T1 construct: endogenous in cells; host or cells: PMA-differentiated THP-1
Protocol: FIGS. 9A and B are bar charts showing the effect of A464 on Pam3CysK4-induced TNFα in human THP-1 cells. Cells were seeded in 96 well plates (3×10^5 cells/ml) and differentiated with 200 nM PMA for 24 hours before treatment. A464 (SEQ ID NO. 20) was added to the cells at a concentration of 1, 5 or 10 μM 1 hour before stimulating with either 100 ng/ml (A) or 10 ng/ml Pam3CysK4 (B). Supernatants were collected 24 hours after stimulation and assayed for TNFα by ELISA. Cells from (B) were also assayed for viability by the MTT assay (C). No peptides were added to the control wells (black bars). Data is representative of at least three experiments each performed in triplicate and is expressed as mean±s.d;
Cytokine and chemokine production from cells or mouse serum was measured by ELISA using Duoset kits from R&D systems, according to the manufacturer's instructions.
In order to determine whether A464 (SEQ ID No. 20) was specific for TLR4, other TLR pathways were next assayed for sensitivity to A464 (SEQ ID No. 20). A scrambled version of A464 (SEQ ID No. 20) peptide was designed to use as a further control peptide, and this had the sequence: […] (ConA464, SEQ ID No. 32). The A464R (SEQ ID No. 20) and ConA464 (SEQ ID No. 32) peptides were assayed for inhibition of TLR2 signalling in THP-1 cells. […]

IκBα = assay: LPS-induced IκBα degradation in RAW264.7 cells, immunoblot; type: cell-based, murine; conditions: peptide 4 μM 1 h before 10 ng/ml LPS for 5, 15, 30 or 60 min
Protocol: FIGS. 25A and B are immunoblots showing the effect of A464 on LPS-induced IκBα degradation in murine RAW264.7 cells. Cells were seeded in 6-well plates at 1.5×10^5 cells/ml 24 hours prior to treatment with peptides. […] Cells were stimulated with 10 ng/ml LPS for a period of 5, 15, 30 or 60 min and then harvested on ice and lysed in 1% NP-40 containing lysis buffer. Lysates then were denatured using 5× sample buffer with DTT and resolved by SDS-PAGE. The proteins were transferred to PVDF membrane and the membrane was immunoblotted for IκBα (A). Equal protein loading was confirmed by re-probing the blot for β-actin (B). The blots shown are representative of two experiments;
RAW264.7 cells were seeded at a density of 1×10^5 cells/ml in 6 well plates. […] The protein concentration was determined by monitoring the change in the solution absorbance at 280 nm using a spectrophotometer compared to protein standards. […] Thereafter, the membranes were washed, incubated in appropriate secondary antibody and then developed using standard enhanced chemi-luminescence (ECL) reagents.
To further assay activation of NFκB, the degradation of its inhibitor IκBα, an event required for the translocation of the NFκB into the nucleus, was measured. […]

T1 sequence (O60603 21-784): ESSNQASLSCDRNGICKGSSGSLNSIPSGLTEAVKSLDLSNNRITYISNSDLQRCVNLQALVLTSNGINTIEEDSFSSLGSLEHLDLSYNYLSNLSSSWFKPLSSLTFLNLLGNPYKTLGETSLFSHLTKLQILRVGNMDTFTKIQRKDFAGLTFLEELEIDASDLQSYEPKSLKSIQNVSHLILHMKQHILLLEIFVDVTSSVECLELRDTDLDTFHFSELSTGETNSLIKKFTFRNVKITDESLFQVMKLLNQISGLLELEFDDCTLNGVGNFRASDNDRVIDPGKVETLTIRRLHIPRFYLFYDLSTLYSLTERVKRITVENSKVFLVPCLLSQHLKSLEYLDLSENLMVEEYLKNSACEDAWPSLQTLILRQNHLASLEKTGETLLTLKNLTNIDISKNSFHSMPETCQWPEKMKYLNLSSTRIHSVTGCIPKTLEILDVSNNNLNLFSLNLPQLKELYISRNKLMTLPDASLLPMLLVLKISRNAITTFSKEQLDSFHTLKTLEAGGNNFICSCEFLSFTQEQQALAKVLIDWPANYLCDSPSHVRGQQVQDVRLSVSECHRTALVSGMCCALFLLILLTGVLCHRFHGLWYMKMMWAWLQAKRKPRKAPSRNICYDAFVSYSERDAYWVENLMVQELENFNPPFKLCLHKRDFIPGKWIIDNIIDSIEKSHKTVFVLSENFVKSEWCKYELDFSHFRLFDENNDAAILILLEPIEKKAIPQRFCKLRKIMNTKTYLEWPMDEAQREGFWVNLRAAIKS
T1 sequence (Q15399 25-786 partner): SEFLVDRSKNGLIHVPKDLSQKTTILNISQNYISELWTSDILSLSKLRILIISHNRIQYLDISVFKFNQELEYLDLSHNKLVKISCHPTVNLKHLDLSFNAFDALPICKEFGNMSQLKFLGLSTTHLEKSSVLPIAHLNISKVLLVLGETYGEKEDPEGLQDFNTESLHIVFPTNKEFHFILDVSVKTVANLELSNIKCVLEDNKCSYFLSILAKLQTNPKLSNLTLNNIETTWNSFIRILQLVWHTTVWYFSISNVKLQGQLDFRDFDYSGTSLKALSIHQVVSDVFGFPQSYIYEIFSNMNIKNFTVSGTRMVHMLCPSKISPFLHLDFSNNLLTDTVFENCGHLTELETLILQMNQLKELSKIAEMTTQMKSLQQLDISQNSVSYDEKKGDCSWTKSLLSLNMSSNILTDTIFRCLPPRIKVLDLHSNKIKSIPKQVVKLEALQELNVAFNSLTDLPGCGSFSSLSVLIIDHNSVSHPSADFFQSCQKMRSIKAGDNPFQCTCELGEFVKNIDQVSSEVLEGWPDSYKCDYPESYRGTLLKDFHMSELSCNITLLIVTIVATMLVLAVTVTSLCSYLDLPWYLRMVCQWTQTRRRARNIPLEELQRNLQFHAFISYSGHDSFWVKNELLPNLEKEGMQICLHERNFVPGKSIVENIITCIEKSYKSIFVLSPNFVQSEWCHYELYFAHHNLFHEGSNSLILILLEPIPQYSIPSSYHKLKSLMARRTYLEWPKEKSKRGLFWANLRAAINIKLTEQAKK

KYSFKLILAEYRRRRRRRRR [Peptide A464]
inhibition of Pam3CysK4-induced hTNFα secretion (TLR2; 10 ng/ml Pam3CysK4, 24 h): slightly heightened | inhibition of Pam3CysK4-induced hTNFα secretion (TLR2; 100 ng/ml Pam3CysK4, 24 h): only very minor inhibitory effects | effect on LPS-induced IκBα degradation (IκBα): blocked the degradation of IκBα seen at 15 and 30 min
